{"source": "paper PMC3078924", "target": "recombinant ATP synthase subunit β of A. actinomycetemcomitans, as purified (Aggregatibacter actinomycetemcomitans ATCC 700685 (HK1651))", "test": "native gel or EMSA; recombinant ATP synthase subunit β on native PAGE, silver stained; three prominent forms", "data": [{"substance": "recombinant ATP synthase subunit β of A. actinomycetemcomitans, as purified (enzyme)", "values": [{"measurement": "stoichiometry N", "value": 3}]}]}
